Target: fetuin
Assay: ELISA on coated fetuin, OS-PT at 20 µg/ml, detection with anti-PT serum

Substance “OS-PT conjugate: B. pertussis 186 LOS-derived oligosaccharide coupled to pertussis toxin by reductive amination (oligosaccharide content not specified at the place) (from UniProt P04977 35-269; P04978 28-226; P04979 29-227; P0A3R5 43-152; P04981 35-133)” has an absorbance at A405 nm of 0.117 A405 nm.

Reference: patent publication US9878051
